In this test the target is CCR5 on ThP1 human monocytes (human) (UniProt P51681).
CCR5 on ThP1 human monocytes (human), sequence (P51681 whole entry): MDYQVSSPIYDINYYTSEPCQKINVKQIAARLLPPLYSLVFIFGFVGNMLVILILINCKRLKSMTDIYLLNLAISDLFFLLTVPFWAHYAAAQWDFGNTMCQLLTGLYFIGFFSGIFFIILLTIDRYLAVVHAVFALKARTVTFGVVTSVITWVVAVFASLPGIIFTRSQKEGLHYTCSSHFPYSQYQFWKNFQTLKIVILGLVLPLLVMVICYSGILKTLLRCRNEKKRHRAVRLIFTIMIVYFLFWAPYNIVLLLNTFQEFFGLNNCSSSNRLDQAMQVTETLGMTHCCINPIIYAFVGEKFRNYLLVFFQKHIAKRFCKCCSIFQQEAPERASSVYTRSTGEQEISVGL

As for “native form murine CCL4 (from UniProt P14097 24-92) (ligand)”, the EC50, calcium flux (RFU) in ThP1 monocytes [panel D] stood at 6.3 nM.

These data come from US20260049115A1.
